In PMC5413018, “Neuropeptide S (NPS) variants modify the signaling and risk effects of NPS Receptor 1 (NPSR1) variants in asthma” (PLoS ONE, 2017):

Key:
[1] = biological target: T1, NPSR1-Ile(107) (Homo sapiens, UniProt Q6W5P4, N107I); assay: Real-time RT-PCR of NPSR1 downstream target genes in HEK293 cells, NPSR1-Ile(107); type: cell-based; set-up: expressed in transfected cells; host or cells: HEK293
T1 sequence (Q6W5P4 1-371 N107I): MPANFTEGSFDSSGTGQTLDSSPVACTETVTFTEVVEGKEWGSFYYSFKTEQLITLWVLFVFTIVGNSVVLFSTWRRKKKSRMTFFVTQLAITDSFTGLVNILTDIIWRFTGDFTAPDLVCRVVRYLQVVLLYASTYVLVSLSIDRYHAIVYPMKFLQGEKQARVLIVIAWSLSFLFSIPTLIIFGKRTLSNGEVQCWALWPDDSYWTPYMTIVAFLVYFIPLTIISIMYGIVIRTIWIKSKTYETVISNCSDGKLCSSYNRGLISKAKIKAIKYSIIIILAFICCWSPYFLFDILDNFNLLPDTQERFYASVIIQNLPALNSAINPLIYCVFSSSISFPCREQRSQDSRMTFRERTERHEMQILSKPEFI
Source text: The activation of CRE results in transcriptional changes of downstream target genes. To examine whether the observed differences in the promoter activity also affected gene expression, we measured the effects of NPS variants on known NPSR1 downstream target genes. NR4A1 (nuclear receptor subfamily 4, group A, member 1), FOS (FBJ murine osteosarcoma viral oncogene homolog), and chemokine ligands CXCL2 and CCL20 were selected as they were among the most influenced genes after NPS stimulation and their expression also differed between transcriptome comparisons of HEK293 cells expressing either NPSR1-Ile(107) or NPSR1-Asn(107). In the present study, HEK293 cells transiently transfected with either NPSR1-Ile(107) or NPSR1-Asn(107) coding variants were stimulated with 100 nM of either NPS-Val(6) or NPS-Leu(6) for 1, 3, 6, and 24 h, and changes in gene expression were analyzed with RT-PCR.
Fig 2 Real time RT-PCR analysis of NPSR1 downstream target genes. […] GAPDH was used as the endogenous reference, and data are expressed as mean of triplicate samples. […] In all experiments, results were calculated with the comparative Ct method.
Human embryonic kidney cells (HEK293) were cultured in MEM+GlutaMAX-1 medium (Gibco/Invitrogen) supplemented with 10% fetal calf serum (FCS) (Biosera), 1% sodium pyruvate, 1% non-essential amino acids and 1% penicillin/streptomycin (Gibco/Invitrogen). […] The HEK293 cell line was chosen for ligand-receptor studies because it is a well-established model for addressing numerous questions in basic biology and is easy to transfect and amenable of stringent quantitative assessment. […]
The mRNA expression was measured with qRT-PCR using either SYBR Green (for NR4A1, FOS, IER3, and EGR1, the primer sequences are given in S5 Table) or TaqMAN assay (Hs00601975 for CXCL2 Hs00601975, Hs01011368 for CCL20, Hs01036497 for NPSR1 and Pre-Developed TaqMAN Assay Reagents, Part No. 4310884 for GAPDH; Applied Biosystems). […]

[2] = tested on: NPSR1; conditions: cited from earlier work
Source text: To compare the bioactivities of the two NPS variants, we measured the dose-responses of NPSR1-Ile(107) and NPSR1-Asn(107) coding variants to either wildtype NPS-Val(6) or alternative NPS-Leu(6) in a luciferase assay dependent on the activation of a cAMP-response element (CRE). This assay was used since elevation of the intracellular cAMP levels activates cAMP response element binding protein (CREB) via […]. Activated CREB binds to CRE and induces the expression of downstream target ...

[3] = tested on: NPSR1-Ile(107); conditions: cell models; cited from earlier work
Source text: The functional NPSR1 SNP rs324981 (A>T), encoding a substitution of Asn(107)Ile in the putative ligand-binding pocket of NPSR1 [5], has shown associations with neuropsychiatric phenotypes, such as panic disorders, psychological stress, and fear responses. […] In cell models, the change of Asn(107) to Ile(107) results in 10-fold increase in NPS-mediated intracellular sign ... || A key strength of this study is the use of robust in vitro cell assays that allowed us to dissect the functional effects of coding NPS/NPSR1 variants on receptor signaling and downstream gene expression. Our cell assays confirmed that stimulation of cells transfected with either NPSR1-Asn(107) or NPSR-Ile(107) with the wildtype NPS-Val(6), induced CRE activity as described previously.

[4] = HEK293 with NPSR1-Ile(107) or NPSR1-Asn(107), 100 nM NPS

downstream signaling in cells expressing NPSR1-Ile(107) vs NPSR1-Asn(107) (in words) ([1]; HEK293, 100 nM, compared with cells expressing NPSR1-Asn(107)): stronger downstream signaling | time of mRNA induction of NR4A1, FOS and CXCL2 [1, 4]: 1 h | time of up-regulation of CCL20 mRNA [1, 4]: 3 h
Substance: Neuropeptide S (SFRNGVGTGMKKTSFQRAKS; Neuropeptide S; UniProt P0C0P6 70-89, looked up) [NPS, Neuropeptide S, variant not specified at the place]
cAMP production on NPSR1 activation (in words) [2]: increasing cAMP production | increase in NPS-mediated intracellular signaling on change of Asn(107) to Ile(107) [3]: 10 fold
